{"source": "patent US20250332238", "proteins": {"B1": {"name": "C21orf127 (KMT9alpha; N-6 adenine-specific DNA methyltransferase 1, isoform 1, Homo sapiens) (protein)", "chain": "MAGENFATPFHGHVGRGAFSDVYEPAEDTFLLLDALEAAAAELAGVEICLEVGSGSGVVSAFLASMIGPQALYMCTDINPEAAACTLETARCNKVHIQPVITDLVKGLLPRLTEKVDLLVFNPPYVVTPPQEVGSHGIEAAWAGGRNGREVMDRFFPLVPDLLSPRGLFYLVTIKENNPEEILKIMKTKGLQGTTALSRQAGQETLSVLKFTKS"}, "B2": {"name": "C21orf127/TRMT112 heterodimer (KMT9) (protein)", "chain 1": "B1 chain", "chain 2": "MKLLTHNLLSSHVRGVGSRGFPLRLQATEVRICPVEFNPNFVARMIPKVEWSAFLEAADNLRLIQVPKGPVEGYEENEEFLRTMHHLLLEVEVIEGTLQCPESGRMFPISRGIPNMLLSEEETES"}, "B3": {"name": "C21orf127(Y125A)/TRMT112 complex (protein)", "chain 1": "B1 chain with Y125A", "chain 2": "B2 chain 2"}}, "key": {"[1]": {"biological_target": "T1, TRMT112 (KMT9beta; tRNA methyltransferase subunit 11-2, isoform 2, Homo sapiens)", "T1 chain": "B2 chain 2"}, "[2]": {"biological_target": "mutant histone H4 where K12 was changed to alanine (H4K12A), P62805"}}, "note": "Numbering of substitutions follows the chain as printed. Names may count otherwise."}
{"protein": "B1", "values": [{"measurement": "HMT activity (methylation assay)", "setting": "[1]", "value": "only the C21orf127/TRMT112 heterodimer displayed HMT activity"}]}
{"protein": "B2", "values": [{"measurement": "in vitro methylation assay with SAM [3H] (FIG. 1B)", "setting": "[2]", "value": "wild-type H4 protein, but not mutant H4 where K12 was changed to an alanine (A) residue (H4K12A), was methylated"}, {"measurement": "in vitro methylation assay with SAM [3H] (FIG. 1A, FIG. 1B)", "setting": "histone H4, P62805", "value": "wild-type H4 protein, but not mutant H4 where K12 was changed to an alanine (A) residue (H4K12A), was methylated"}]}
{"protein": "B3", "values": [{"measurement": "methylation of ETF1 (methylation assay)", "setting": "ETF1, P62495", "value": "resulted in methylation of H4K12, but not ETF1 by the mutant C21orf127(Y125A)/TRMT112 complex"}, {"measurement": "methylation of H4K12 (methylation assay)", "setting": "histone H4, P62805", "value": "resulted in methylation of H4K12, but not ETF1 by the mutant C21orf127(Y125A)/TRMT112 complex"}]}
